Assay results taken from the supplement of paper PMC9170038.

Tested on: MS2 coat protein
Test: apparent KD of MS2 coat protein; designed switch direction (-1 OFF switch, 1 ON switch): -1; higher = weaker reporter binding
In short: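 Three titration conditions were used: no input, 200 uM small-molecule ligand, and an oligonucleotide input. In each, SNAP-549-labelled MS2 coat protein was raised from 0.7 or 1.5 nM, doubling, to 3 µM over designed RNA switches transcribed on Illumina chips by stalled E. coli RNA polymerase. Curve fits of normalised cluster fluorescence gave values whose per-design median over clusters is the apparent KD.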

[1] = input ligand: microRNA oligo, concentration not stated
[2] = Eterna round: R95, input ligand: FMN 200 uM
[3] = Eterna round: R95, input ligand: microRNA oligo, concentration not stated
[4] = Eterna round: R95, input ligand: none

| Sequence | apparent KD of MS2 coat protein (input ligand: FMN 200 uM) [nM] | apparent KD of MS2 coat protein [1] [nM] | apparent KD of MS2 coat protein (input ligand: none) [nM] | apparent KD of MS2 coat protein [2] [nM] | apparent KD of MS2 coat protein [3] [nM] | apparent KD of MS2 coat protein [4] [nM] |
| --- | --- | --- | --- | --- | --- | --- |
| AAGGAUAGAGGAUAUACGUAGAUACAGAUUCAUGUAGAACUACAUGAGGAUCACCCAUGUAGAAGGCUAUCCUA [Fiskers Ex 2 - 6] (Eterna round: R96, puzzle: Exclusion 2) | 354 | 24.8 | 29 | – | – | – |
| CAGUACGGAGGAUAUACAUGAGGAUCACCCAUGUGAGAGAUACUAGUGAGGUCGAUUAGUAGAAGGCUGUACUG [Mat X3R4 m6] (Eterna round: R97, puzzle: Exclusion 3) | 501 | – | 39.7 | – | – | – |
| AAAUACAAGUAAAGAUCUUACAUGAGGAUCACCCAUGUGCUCGUCUUAUAAAGUACUAUCACGAAAGUGAUAGUACA [Sensor 3, v1 - 25] (puzzle: Sensor v3, turn-off variant 1) | – | – | – | 15.9 | 159 | 18.4 |
| GAUUGACAUGAGGAUCACCCAUGUGAGGAUAUCGGCUGGACCGUGUUGGCGUGCCUCUCGAGAAGGCGCAUAGG [Exclusion 1 V54] (puzzle: Exclusion 1) | – | – | – | 64.8 | 39.9 | 51.3 |
| GUUGGAUGAGGAUAUCGAGGUUAGUACAUGAGGAUCACCCAUGUUAUCCAGGUGUCGGUUCGAGAAGGCAUUGGAC [LRO-Ex5-14] (Eterna round: R96, puzzle: Exclusion 5) | 104 | 27.8 | 34.7 | – | – | – |
| ACAAGCGAAAGGCUCGUCUUAUUUUUGUAGAGGUUCUAAACAUGAGGAUCACCCAUGUAGUGGCGAUGGUGGAGGUA [JR_SV3TOV2_Sub069] (puzzle: Sensor v3, turn-off variant 2) | – | – | – | 41.8 | 44.2 | 42.4 |
| AGGAUGUUAGGAUAUCGAAGGUUGUGGCAGGCGGGAAUUUGCGAGAAGGAACAUGAGGAUCACCCAUGUGAAAU [JR_Exclu4_Sub044] (puzzle: Exclusion 4) | – | – | – | – | 19.7 | – |
| GAUUGACAUGAGGAUCACCCAUGUGAGGAUAUCGGCCGGACCUUGUUAGCUUCCACCGCGAGAAGGCACAUAGG [Exclusion 1 V31] (puzzle: Exclusion 1) | – | – | – | – | 25.3 | – |
| ACAUGUUAUCCAUGAUAUUACAUGAGGAUCACCCAUGUUAUGGCGAUUUUGAUGUGUAAGUUUGUUGCUCGUCUUAU [JR_STOV1_Sub060] (Eterna round: R97, puzzle: Sensor, turn-off variant 1) | 40.9 | – | 48.1 | – | – | – |
| UAUAUAUAGUAAGGAUAUGUAUAUACUUUAUAAACAGAAGGUACUGACAUGAGGAUCACCCAUGUUUUAGUGUGGGCAUGUAGA [JMF's solution 57] (Eterna round: R96, puzzle: Exclusion NG 1) | – | 57.1 | – | – | – | – |
| UUUGUUGUUGUGAGGAUAUCGUUGUUAUUUUGAAACGAGAAGGCACAUGAGGAUCACCCAUGUUUGUUGUUGGU [JR_BMOE4_Sub059] (puzzle: Brourd's mod of Exclusion 4) | – | – | – | – | 48.8 | – |
| UAAUGUGCGAGAGGAUAUCGUGUACAAAGUACACGAGAAGGCUUCACAUGAGGAUCACCCAUGUAUCGAGGUGAAACACCUUGG [Omei Exc(NG)1 Bv2] (Eterna round: R96, puzzle: Exclusion NG 1) | 703 | 285 | 318 | – | – | – |
| GGUUGGCGAGGAUAUACAUGAGGAUCACCCAUGUGAGAGAAAAAAGUGAGGAAGAAAAGUAGAAGGCGCUGACA [salish99_ex3_r3_046] (puzzle: Exclusion 3) | – | – | – | 188 | 43.9 | 54.1 |
| GUAUGAGGAGGAUAUACGUAUCCUUGACCCUGCUAGCGCGGACAUGAGGAUCACCCAUGUAGAAGGUUUCGACA [Eternabot (L1) Solution 46] (Eterna round: R97, puzzle: Exclusion 2) | 28.8 | – | 38.6 | – | – | – |
| CGGAUGUGAGGAUAUACAUGAGGAUCACCCAUGUGAGCCAGCUAGCUGACUGGCUCAUGUAGAAGGCACGUCUG [JL-ex3-2.15 Brourd mod] (puzzle: Exclusion 3) | – | – | – | – | 42.2 | – |
| CAACUGUGAGGAUAUGGUGAGUAGUGCCUGAGCGCUGCUCACCAGAAGGCACAUGAGGAUCACCCAUGUAUAAC [Mat - Exclusion 4 - Mod of JL - D4] (puzzle: Exclusion 4) | – | – | – | – | 35.6 | – |
| CGCAUGUGAGGAUAUGUACUAGUUGAGCACAGUCAGCCAGAACAGAAGGCACAUGAGGAUCACCCAUGUGUACC [EX4 B.7] (Eterna round: R97, puzzle: Exclusion 4) | 154 | – | 22.3 | – | – | – |
| CUAUUCCGAGGAUAUACAUGAGGAUCACCCAUGUCGGGCCUCUGGCCUAAGGCCGAAAGUAGAAGGUGGGUUUC [JL Riri mod 10] (puzzle: Exclusion 3) | – | – | – | – | 54.2 | – |
| UUUAUGUCAGGAUAUACAUGAGGAUCACCCAUGUAUACCUUAAGGUAUACAUGGGAAUGUAGAAGGGACCUCCU [Omei Ex3 Pseudoloop 8] (Eterna round: R97, puzzle: Exclusion 3) | 26.6 | – | 46.7 | – | – | – |
| GUAAACGAAGAGGAUAUAUGAUAUCAAAGCUUCAUAGAAGGCUUCACAUGAGGAUCACCCAUGUGAUCUUCAAG [Mat - Exclusion 6 - JL Mod - D25] (Eterna round: R97, puzzle: Exclusion 6) | 354 | – | 71.5 | – | – | – |
| AGUACUAACACGUGAGUGUUAGUACAAUAAGCUUGUGAAACAUGAGGAUCACCCAUGUCCUCAUAAGCUCGUCUUAU [salish99_TOv2_r3_061] (puzzle: Sensor v3, turn-off variant 2) | – | – | – | 17.4 | 1070 | 15.6 |
| GAUUGAGAGCAGGAUAUCUUAGAAAUGUAUUAAAGAGAAGGGCUCACAUGAGGAUCACCCAUGUGGUCCUAGAU [JL Dibiri mod 16] (Eterna round: R96, puzzle: Exclusion 6) | 306 | 22.8 | 26.3 | – | – | – |
| AAAGAAGAGAGAAAAUAACACAUGAGGAUCACCCAUGUGAGAAGUUGAGGGUGAUACAGGCUUUAUGCUCGUCUUAU (puzzle: Sensor v3, turn-off variant 1) | – | – | – | 173 | 204 | – |
| CUGGACCCGGUAGGAUAUAUUGUGGGCGGGCGUGGAACGACAUGAGGAUCACCCAUGUGAUUGAGGUAGAAGGGCCGAGAGGUC [Excl-NG2-LRO19] (Eterna round: R96, puzzle: Exclusion NG 2) | 43.2 | 31.2 | 42.9 | – | – | – |
| GUCACAUGGACAUAGGAUCACAUGAGGAUCACCCAUGUGACUAACAAGCUUUUUGCUCGUCUUAUGUCUAUGUGAAU [Stov1/16-A2] (Eterna round: R97, puzzle: Sensor, turn-off variant 1) | 14 | – | 14.3 | – | – | – |
| ACAUGAGGAUCACCCAUGUCCGUCUGGUCUGUCUCGGCUGUCGAGGAUAUAGCUCGGUAUCCGCGCUAGAAGGCGGGAGUCGGA [Aenatbe mod 94] (Eterna round: R96, puzzle: Exclusion NG 3) | 24.3 | 24.2 | 32.3 | – | – | – |
